The text below walks through data of publication PMC10757926, “Two birds with one stone: human SIRPα nanobodies for functional modulation and in vivo imaging of myeloid cells” (Frontiers in Immunology, 2023).

Assay [1] has as its target T1, hSIRPα domain 3 displayed on U2OS cells (Homo sapiens, UniProt P78324).
T1 construct: signal-regulatory protein α (SIRPα), human, domain 3; also called hSIRPαD3; D3; source: U2OS, transiently expressing, on live cells
Briefly: immunostaining of cells or tissue; live-cell immunofluorescence on U2OS cells expressing the target; unlabeled Nbs (1 nM to 100 nM) with Cy5-labeled anti-VHH, 1 h at 37°C. Conditions: one partner purified.

The target of assay [2] is T2, hSIRPα domain 1 displayed on U2OS cells (Homo sapiens, UniProt P78324).
T2 construct: signal-regulatory protein α (SIRPα), human, domain 1; also called hSIRPαD1; D1; source: U2OS, transiently expressing, on live cells
T2 sequence (P78324 whole entry, looked up, tested part not stated): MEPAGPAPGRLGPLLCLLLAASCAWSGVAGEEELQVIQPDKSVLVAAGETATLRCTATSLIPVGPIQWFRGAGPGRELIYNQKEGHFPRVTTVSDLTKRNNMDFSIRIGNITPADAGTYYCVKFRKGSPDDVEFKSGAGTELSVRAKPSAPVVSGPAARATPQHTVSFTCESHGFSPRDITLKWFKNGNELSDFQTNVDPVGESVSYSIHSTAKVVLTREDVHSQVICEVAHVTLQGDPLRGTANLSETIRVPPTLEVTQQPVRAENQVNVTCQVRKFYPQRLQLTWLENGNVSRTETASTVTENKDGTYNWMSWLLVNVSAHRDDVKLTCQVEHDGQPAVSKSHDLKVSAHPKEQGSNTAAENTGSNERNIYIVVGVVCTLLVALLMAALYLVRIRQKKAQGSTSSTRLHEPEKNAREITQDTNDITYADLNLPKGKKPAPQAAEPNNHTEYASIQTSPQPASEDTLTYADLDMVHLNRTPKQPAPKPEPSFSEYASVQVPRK
Described as above. Conditions: one partner purified.

For assay [3], the target named is T3, hSIRPα domain 2 displayed on U2OS cells (Homo sapiens, UniProt P78324).
T3 construct: signal-regulatory protein α (SIRPα), human, domain 2; also called hSIRPαD2; D2; source: U2OS, transiently expressing, on live cells
T3 sequence (P78324 whole entry, looked up, tested part not stated): as above
The description is as above. To be noted: one partner purified.

Assay [4] addresses T4, full-length hSIRPα on U2OS cells (Homo sapiens, UniProt P78324).
T4 construct: signal-regulatory protein α (SIRPα), human, full-length, co-expressed with IRES-derived GFP; also called U2OS-hSIRPα; source: U2OS, stably expressing, on live cells
The assay is described as above. Conditions: one partner purified.

The target of assay [5] is T5, murine SIRPα displayed on U2OS cells (Mus musculus, UniProt P97797).
T5 construct: signal-regulatory protein α (SIRPα), mouse; also called mouse SIRPα; source: U2OS, transiently expressing, on live cells
T5 sequence (P97797 32-513): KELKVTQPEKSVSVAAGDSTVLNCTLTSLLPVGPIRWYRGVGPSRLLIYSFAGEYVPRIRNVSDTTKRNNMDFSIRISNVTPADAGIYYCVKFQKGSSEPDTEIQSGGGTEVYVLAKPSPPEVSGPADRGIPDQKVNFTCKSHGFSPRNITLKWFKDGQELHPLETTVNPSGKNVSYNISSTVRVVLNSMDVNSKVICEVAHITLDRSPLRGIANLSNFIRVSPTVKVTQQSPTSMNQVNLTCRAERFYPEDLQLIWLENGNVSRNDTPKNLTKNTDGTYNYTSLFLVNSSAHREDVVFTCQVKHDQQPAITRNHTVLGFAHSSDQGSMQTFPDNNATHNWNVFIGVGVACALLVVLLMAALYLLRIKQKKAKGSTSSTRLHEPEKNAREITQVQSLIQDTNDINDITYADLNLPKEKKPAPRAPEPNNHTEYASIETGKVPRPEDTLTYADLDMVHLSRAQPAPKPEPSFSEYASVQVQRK
Described as above. Conditions: one partner purified.

For assay [6], the target named is T6, hSIRPβ1 displayed on U2OS cells (Homo sapiens, UniProt O00241).
T6 construct: signal-regulatory protein β1 (SIRPβ1), human; source: U2OS, transiently expressing, on live cells
T6 sequence (O00241 30-398): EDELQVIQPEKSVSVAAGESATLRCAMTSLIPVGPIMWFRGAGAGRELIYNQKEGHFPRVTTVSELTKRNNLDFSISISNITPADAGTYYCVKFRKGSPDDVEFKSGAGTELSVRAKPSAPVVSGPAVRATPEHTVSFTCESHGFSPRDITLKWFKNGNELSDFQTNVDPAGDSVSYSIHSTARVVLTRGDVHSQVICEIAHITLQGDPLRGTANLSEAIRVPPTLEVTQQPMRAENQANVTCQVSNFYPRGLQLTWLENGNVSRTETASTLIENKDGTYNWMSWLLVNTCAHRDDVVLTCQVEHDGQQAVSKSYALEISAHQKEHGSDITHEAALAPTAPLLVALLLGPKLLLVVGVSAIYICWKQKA
The assay is described as above. Conditions: one partner purified.

Assay [7] addresses T7, hSIRPγ displayed on U2OS cells (Homo sapiens, UniProt Q9P1W8).
T7 construct: signal-regulatory protein γ (SIRPγ), human; also called hSIRPy; source: U2OS, transiently expressing, on live cells
The assay is described as above. To be noted: one partner purified.

Assay [8] deals with T8, biotinylated recombinant hSIRPα (extracellular portion) (Homo sapiens, UniProt P78324, biotin (Sulfo-NHS-LC-LC-Biotin)).
T8 construct: signal-regulatory protein α (SIRPα), human, recombinant extracellular portion; also called biotinylated hSIRPα; signal-regulatory protein α; source: bought: Acrobiosystems
T8 sequence (P78324 31-373): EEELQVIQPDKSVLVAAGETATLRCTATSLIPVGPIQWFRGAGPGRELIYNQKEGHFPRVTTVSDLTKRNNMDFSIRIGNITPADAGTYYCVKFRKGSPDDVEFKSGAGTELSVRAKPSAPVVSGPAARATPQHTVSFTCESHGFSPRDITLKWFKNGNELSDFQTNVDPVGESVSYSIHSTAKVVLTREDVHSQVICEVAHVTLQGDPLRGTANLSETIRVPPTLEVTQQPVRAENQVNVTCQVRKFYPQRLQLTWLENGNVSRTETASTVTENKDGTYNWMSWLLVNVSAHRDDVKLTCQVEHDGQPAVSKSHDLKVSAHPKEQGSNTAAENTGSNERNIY
As to the kind of experiment: BLI; epitope binning: two consecutive association steps with different Nbs on recombinant hSIRPα. To be noted: both partners purified. Background: BLI is a label-free optical method that tracks binding on a fibre tip over time.

The target in the next assay is T9, recombinant hSIRPα (human, UniProt P78324).
T9 construct: signal-regulatory protein α (SIRPα), human, recombinant extracellular portion; source: bought: Acrobiosystems
T9 sequence (P78324 31-373): as above
Briefly: HDX-MS; hSIRPα with Nb S8, S33 or S36; methods not in the text shown. Conditions: both partners purified.

The target of assay [9] is T10, hSIRPα-V1 displayed on U2OS cells (Homo sapiens, allele V1, UniProt P78324).
T10 construct: signal-regulatory protein α (SIRPα), human, allelic variant V1; also called hSIRPα variant V1; source: U2OS, transiently expressing, on live cells
T10 sequence (P78324 31-504): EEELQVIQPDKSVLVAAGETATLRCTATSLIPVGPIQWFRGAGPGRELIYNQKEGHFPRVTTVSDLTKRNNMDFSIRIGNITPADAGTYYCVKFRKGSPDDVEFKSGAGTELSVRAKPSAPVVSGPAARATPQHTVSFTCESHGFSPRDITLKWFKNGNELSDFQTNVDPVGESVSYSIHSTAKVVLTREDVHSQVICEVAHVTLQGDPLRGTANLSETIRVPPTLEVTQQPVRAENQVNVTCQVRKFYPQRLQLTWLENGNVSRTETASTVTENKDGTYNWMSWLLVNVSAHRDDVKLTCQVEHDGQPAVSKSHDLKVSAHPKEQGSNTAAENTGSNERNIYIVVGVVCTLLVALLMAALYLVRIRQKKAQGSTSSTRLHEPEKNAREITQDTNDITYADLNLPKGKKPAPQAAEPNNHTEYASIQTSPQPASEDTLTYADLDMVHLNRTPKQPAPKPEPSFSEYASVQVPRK
Briefly: immunostaining of cells or tissue; live-cell immunofluorescence on U2OS cells expressing the target; unlabeled Nbs (1 nM to 100 nM) with Cy5-labeled anti-VHH, 1 h at 37°C. To be noted: one partner purified.

T1 sequence (P78324 whole entry, looked up, tested part not stated): as the sequence (P78324 whole entry, looked up, tested part not stated) above
T7 sequence (Q9P1W8 29-387): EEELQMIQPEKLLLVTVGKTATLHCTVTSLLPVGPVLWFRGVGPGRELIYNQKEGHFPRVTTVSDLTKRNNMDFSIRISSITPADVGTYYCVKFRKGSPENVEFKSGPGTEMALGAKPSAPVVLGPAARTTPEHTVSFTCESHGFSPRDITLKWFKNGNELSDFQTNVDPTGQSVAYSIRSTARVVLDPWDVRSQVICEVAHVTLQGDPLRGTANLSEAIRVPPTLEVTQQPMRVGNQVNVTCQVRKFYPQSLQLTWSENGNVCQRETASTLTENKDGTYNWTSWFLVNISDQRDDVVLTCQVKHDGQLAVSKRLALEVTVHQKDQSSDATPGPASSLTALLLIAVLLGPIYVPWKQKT
T4 sequence (P78324 31-504): as the sequence (P78324 31-504) above

B1: hSIRPα Nb S14 (VHH)
VHH: EVQLVESGGGLVQPGGSLRLSCAASGFTANSYRMTWVRQAPGKGLEWVADIGTGNEWKYYPDSVKGRFTISRDAAKNTVYLQMNSLKPEDTAVYYCAKNGAVWYGEDGLDYWGKGTLVTVSS
notes: selected against the entire extracellular portion of hSIRPα; source: E. coli XL-1, purified (IMAC, SEC); not shown: His tag (from the IMAC purification)
As to B1, the binding result is listed as “no binding (tested: Nbs 1 nM to 100 nM)” in assay [1], “binds” in assay [2], “binds” in assay [3] and “binds” in [4].

B2: hSIRPα Nb S12 (VHH)
VHH: QVQLVESGGGLVQPGGSLRLSCLVSGFSSSYYAIGWFRQAPGKEREGVSCITRSGDTTNYADSVKGRFTISRDDARNTVYLQMNSLKTEDTAVYSCALWAWAGSGRLRCTASEYGHWGQGTQVTVSS
notes: as for B1
In the case of B2, the binding result in assay [5] is reported as “no binding (tested: Nbs 1 nM to 100 nM)”; in [1], “no binding (tested: Nbs 1 nM to 100 nM)”; in [2], “binds”; in assay [6], “binds”; in [7] it was “binds”; in assay [4], “binds”. The binding result in [8] is reported as “binds”.

B3: hSIRPα Nb S21 (VHH)
VHH: DVQLVESGGGLVQPGGSLTLSCAASGFTSGTYALAYFRQAPGKEREGVSCISNDGGSRNYADSVKGRFTISRDNAKNTMYLQMNSLKPEDTAVYYCAAGPWYYCSDFARRPDGMDYWGKGTPVTVSS
notes: as for B1
As for B3, the binding result in assay [1] is “no binding (tested: Nbs 1 nM to 100 nM)”; in assay [3], “binds”; in assay [4] it was “binds”.

B4: hSIRPα Nb S17 (VHH)
VHH: QVQLVESGGGLVQPGGSLRLSCAASGFTLDSYVIGWFRQAPGKEREGVSCISQRIGSTDYADSVKGRFTISKDNAKNTAYLQMNALKPEDTAVYYCAAGRLYYSGTYCPQGGMSYWGKGSPVTVSS
notes: as for B1
On to B4, for which the binding result in [1] is “no binding (tested: Nbs 1 nM to 100 nM)”; in assay [2], “binds”; in assay [3] it was “binds”; in assay [4], “binds”.

B5: hSIRPα Nb S43 (VHH)
VHH: HVQLVESGGGLVQPGGSARLSCAASGFDLDYFAIGWFRQAPGKEREGVSCISTRSETTNYVDSVKGRFTISRDNAISTVYLQMNNLKPEDTAVYYCAADWADWTMTGCQMTWDDYNYWGQGAQVTVSS
notes: selected against domain 1 of hSIRPα; source: E. coli XL-1, purified (IMAC, SEC); not shown: His tag (from the IMAC purification)
As to B5, the binding result in assay [1] was “no binding (tested: Nbs 1 nM to 100 nM)”; in [2], “binds”; in assay [4], “binds”.

B6: hSIRPα Nb S41 (VHH)
VHH: HVQLVESGGGLVQPGGSLRLSCAASGETLDYYAIGYVRQAPGKEREGVSCISSRGDNTNYADSVKGRFTISRDNANNTVYLQMNSLKPEDTAVYYCVAIKDSWQNYYCSVGWVEYDVWGQGTQVTVSS
notes: as for B5
As for B6, the binding result in [5] is given as “no binding (tested: Nbs 1 nM to 100 nM)”; in [1], “no binding (tested: Nbs 1 nM to 100 nM)”; in assay [2], “binds”; in [6], “binds”; in assay [4] it was “binds”; in assay [8], “binds”.

B7: hSIRPα Nb S42 (VHH)
VHH: HVQLVESGGGLVQPGGSLRLSCAASGFIFSGYAMSWVRQAPGKGLEWVSDISSDGVRLYYADSVKGRFTISRDNAKNTVYLEMTSLKPDDTALYYCATSSDPQLGLDLWGKGTPVTVSS
notes: as for B5
As for B7, the binding result is reported as “no binding (tested: Nbs 1 nM to 100 nM)” in assay [1], “binds” in [2] and “binds” in assay [4].

B8: hSIRPα Nb S8 (VHH)
VHH: QVQLVESGGGLVQPGGSLRLSCADSEFRLDEYATGWFRQAPGKEREGVACISRSGSNTKYTDSVKGRFTISRDNAKKTVYLQMNSLKPEDTAVYYCAADLTSHYLSCSSYTDYNSWGQGTQVTVSS
notes: as for B1
As to B8, the binding result is “binds” in the assay with recombinant hSIRPα; “no binding (tested: Nbs 1 nM to 100 nM)” in assay [5]; “no binding (tested: Nbs 1 nM to 100 nM)” in assay [1]; “binds” in [9]; “binds” in assay [6]; “binds” in assay [7]. Moreover, the binding result in [3], in assay [4] and in [8] was “binds” each time.

B9: hSIRPα Nb S7 (VHH)
VHH: HVQLVESGGGLVQVGDSLRLSCAPSGRTFRAYAMAWFRQAPGKEREFVAAIRWIGGTPSYKDSVKGRFTISRDNARNTFYLQMNSLEPQDTGVYYCAAEETQKGSGLGHDGRHYDYWGQGTPVTVSS
notes: as for B1
As for B9, the binding result in [5] is “no binding (tested: Nbs 1 nM to 100 nM)”; in assay [1], “binds”; in assay [9] it was “binds”; in assay [6], “binds”; in assay [4], “binds”.

B10: hSIRPα Nb S45 (VHH)
VHH: HVQLVESGGGLVQPGGSLRLSCAARGFSFRDSAMSWARQAPGKGLEWVGAIYSDGSTVYEKSVKGRFTISRDNAKNTMYLQMHSLKPEDSARYYCAPKGVVADEGDYSGQGTLVTVSS
notes: as for B5
In the case of B10, the binding result was “no binding (tested: Nbs 1 nM to 100 nM)” in assay [5]; “no binding (tested: Nbs 1 nM to 100 nM)” in assay [1]; “binds” in assay [2]; “binds” in assay [9]; “binds” in [6]; “no binding (tested: Nbs 1 nM to 100 nM)” in [7]. The binding result in [4] and in [8] was “binds” each time.

B11: hSIRPα Nb S29 (VHH)
VHH: EVQLVESGGGLVQPGGSLRLSCAASGFTSETYAIGWFRQAPGKEREGVSCISNDGGSRNYADSVKGRFTISRDNAKNTSYLQMNSLKPEDTAVYYCAAGKYYYCLGYVSDGMDYWGKGTPVTVSS
notes: as for B1
For B11, the binding result in assay [1] is “no binding (tested: Nbs 1 nM to 100 nM)”; in [3], “binds”; in [4], “binds”.

B12: hSIRPα Nb S33 (VHH)
VHH: EVQLVESGGGLVQPGGSLRLSCTTSGFTLDYYSVGWFRQAPGKEREGVSCITASGSSTNYANSVKGRFTISRDKVKNTVYLQMSSLKPEDTAVYYCAAEPCTVVAGILQAPTSDFGSWGQGTQVTVSS
notes: as for B1
As to B12, the binding result with recombinant hSIRPα is reported as “binds”; in assay [5], “no binding (tested: Nbs 1 nM to 100 nM)”; in [1] it was “no binding (tested: Nbs 1 nM to 100 nM)”; in [9], “binds”; in assay [6] it was “binds”; in [3], “binds”. Also, the binding result in [4] and in [8] was “binds” in each case.

B13: hSIRPα Nb S44 (VHH)
VHH: QVQLQESGGGLVQPGGSLRLACAASGFTFSSYDMSWVRQAPGKGLEWVSDIKSGGGRTYYADSVKGRFTISRDNAKNTVYLQMNSLKPEDTAVYYCGSLDNSGAYTGGGQGSQVTVSS
notes: as for B5
With B13, the binding result in assay [5] is “no binding (tested: Nbs 1 nM to 100 nM)”; in assay [1], “no binding (tested: Nbs 1 nM to 100 nM)”; in assay [2] it was “binds”; in assay [6] it was “binds”; in assay [7], “binds”; in [4], “binds”. The binding result in assay [8] is given as “binds”.
